Measured values from the RNAGym collection of RNA variant scans (doi:10.1093/molbev/msab373).

B1: Azoarcus group I ribozyme (parent)
chain: GUGCCUUGCGCCGGGAAACCACGCAAGGGAUGGUGUCAAAUUCGGCGAAACCUAAGCGCCCGCCCGGGCGUAUGGCAACGCCGAGCCAAGCUUCGGCGCCUGCGCCGAUGAAGGUGUAGAGACUAGACGGCACCCACCUAAGGCAAACGCUAUGGUGAAGGCAUAGUCCAGGGAGUGGCGAAAGUCACACAAACCGG

Variants of: B1
Experiment: reverse-splicing fitness (ratio to wild type); higher = more active; in vitro selection; Mg2+ level not given
Method in brief: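 An in vitro group I ribozyme library with randomized positions was T7-transcribed and gel-purified. In triplicate, 10 pmol RNA in EPPS pH 7.5 was reacted with 50 pmoles of a 30-nt RNA substrate for 1 h at 37 °C across several added MgCl2 levels (1–48 mM), then stopped with EDTA. Products were reverse transcribed from a substrate-complementary primer, PCR-amplified and sequenced (HiSeq 4000). Fitness is a variant's read proportion after selection over that before, normalised to wild type.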
Work on C82G A111U A120U A145C C150A C169A yielded a reverse-splicing fitness of 0.00264.
With C82G A111U A120U A145C C150A C169A U176A the reverse-splicing fitness was 0.00214.
C82G A111U A120U A145C C150A C169A U176C showed a reverse-splicing fitness of 0.00215.
Variant C82G A111U A120U A145C C150A C169A U176G has a reverse-splicing fitness of 0.0022.
Work on C82G A111U A120U A145C C150A C169G yielded a reverse-splicing fitness of 0.00272.
Variant C82G A111U A120U A145C C150A C169G U176A has a reverse-splicing fitness of 0.00283.
Work on C82G A111U A120U A145C C150A C169G U176C yielded a reverse-splicing fitness of 0.00259.
C82G A111U A120U A145C C150A C169G U176G showed a reverse-splicing fitness of 0.00199.
C82G A111U A120U A145C C150A C169U showed a reverse-splicing fitness of 0.0027.
C82G A111U A120U A145C C150A C169U U176A gave a reverse-splicing fitness of 0.00306.
Variant C82G A111U A120U A145C C150A C169U U176C has a reverse-splicing fitness of 0.00247.
In the case of C82G A111U A120U A145C C150A C169U U176G, the reverse-splicing fitness is reported as 0.00177.
Work on C82G A111U A120U A145C C150A U176A yielded a reverse-splicing fitness of 0.00311.
With C82G A111U A120U A145C C150A U176C the reverse-splicing fitness was 0.00373.
For C82G A111U A120U A145C C150A U176G, the reverse-splicing fitness was 0.00209.
C82G A111U A120U A145C C150G showed a reverse-splicing fitness of 0.00763.
Variant C82G A111U A120U A145C C150G C169A has a reverse-splicing fitness of 0.00362.
Work on C82G A111U A120U A145C C150G C169A U176A yielded a reverse-splicing fitness of 0.00316.
C82G A111U A120U A145C C150G C169A U176C gave a reverse-splicing fitness of 0.00248.
Variant C82G A111U A120U A145C C150G C169A U176G has a reverse-splicing fitness of 0.00246.
Variant C82G A111U A120U A145C C150G C169G has a reverse-splicing fitness of 0.00344.
In the case of C82G A111U A120U A145C C150G C169G U176A, the reverse-splicing fitness is reported as 0.00357.
With C82G A111U A120U A145C C150G C169G U176C the reverse-splicing fitness was 0.00235.
For C82G A111U A120U A145C C150G C169G U176G, the reverse-splicing fitness was 0.00237.
Work on C82G A111U A120U A145C C150G C169U yielded a reverse-splicing fitness of 0.00336.
In the case of C82G A111U A120U A145C C150G C169U U176A, the reverse-splicing fitness is reported as 0.00273.
Variant C82G A111U A120U A145C C150G C169U U176C has a reverse-splicing fitness of 0.00279.
With C82G A111U A120U A145C C150G C169U U176G the reverse-splicing fitness was 0.00252.
In the case of C82G A111U A120U A145C C150G U176A, the reverse-splicing fitness is reported as 0.00296.
For C82G A111U A120U A145C C150G U176C, the reverse-splicing fitness was 0.00425.
For C82G A111U A120U A145C C150G U176G, the reverse-splicing fitness was 0.00236.
Variant C82G A111U A120U A145C C150U has a reverse-splicing fitness of 0.0116.
C82G A111U A120U A145C C150U C169A gave a reverse-splicing fitness of 0.00282.
C82G A111U A120U A145C C150U C169A U176A showed a reverse-splicing fitness of 0.00212.
C82G A111U A120U A145C C150U C169A U176C showed a reverse-splicing fitness of 0.0022.
C82G A111U A120U A145C C150U C169A U176G showed a reverse-splicing fitness of 0.00176.
In the case of C82G A111U A120U A145C C150U C169G, the reverse-splicing fitness is reported as 0.00286.
C82G A111U A120U A145C C150U C169G U176A gave a reverse-splicing fitness of 0.00298.
With C82G A111U A120U A145C C150U C169G U176C the reverse-splicing fitness was 0.00262.
Variant C82G A111U A120U A145C C150U C169G U176G has a reverse-splicing fitness of 0.0021.
Variant C82G A111U A120U A145C C150U C169U has a reverse-splicing fitness of 0.00298.
Work on C82G A111U A120U A145C C150U C169U U176A yielded a reverse-splicing fitness of 0.00361.
C82G A111U A120U A145C C150U C169U U176C showed a reverse-splicing fitness of 0.00208.
For C82G A111U A120U A145C C150U C169U U176G, the reverse-splicing fitness was 0.00228.
In the case of C82G A111U A120U A145C C150U U176A, the reverse-splicing fitness is reported as 0.00477.
In the case of C82G A111U A120U A145C C150U U176C, the reverse-splicing fitness is reported as 0.00545.
Work on C82G A111U A120U A145C C150U U176G yielded a reverse-splicing fitness of 0.00297.
Variant C82G A111U A120U A145C C169A has a reverse-splicing fitness of 0.00222.
C82G A111U A120U A145C C169A U176A showed a reverse-splicing fitness of 0.00191.
For C82G A111U A120U A145C C169A U176C, the reverse-splicing fitness was 0.00232.
In the case of C82G A111U A120U A145C C169A U176G, the reverse-splicing fitness is reported as 0.00205.
C82G A111U A120U A145C C169G showed a reverse-splicing fitness of 0.00383.
In the case of C82G A111U A120U A145C C169G U176A, the reverse-splicing fitness is reported as 0.00225.
Variant C82G A111U A120U A145C C169G U176C has a reverse-splicing fitness of 0.00219.
Work on C82G A111U A120U A145C C169G U176G yielded a reverse-splicing fitness of 0.00158.
For C82G A111U A120U A145C C169U, the reverse-splicing fitness was 0.00386.
For C82G A111U A120U A145C C169U U176A, the reverse-splicing fitness was 0.00287.
For C82G A111U A120U A145C C169U U176C, the reverse-splicing fitness was 0.00238.
C82G A111U A120U A145C C169U U176G gave a reverse-splicing fitness of 0.00178.
C82G A111U A120U A145C U176A gave a reverse-splicing fitness of 0.00848.
For C82G A111U A120U A145C U176C, the reverse-splicing fitness was 0.0125.
Work on C82G A111U A120U A145C U176G yielded a reverse-splicing fitness of 0.00404.
C82G A111U A120U A145G showed a reverse-splicing fitness of 0.043.
In the case of C82G A111U A120U A145G C150A, the reverse-splicing fitness is reported as 0.0109.
Work on C82G A111U A120U A145G C150A C169A yielded a reverse-splicing fitness of 0.00617.
C82G A111U A120U A145G C150A C169A U176A showed a reverse-splicing fitness of 0.00821.
For C82G A111U A120U A145G C150A C169A U176C, the reverse-splicing fitness was 0.00438.
Variant C82G A111U A120U A145G C150A C169A U176G has a reverse-splicing fitness of 0.00334.
Work on C82G A111U A120U A145G C150A C169G yielded a reverse-splicing fitness of 0.00555.
With C82G A111U A120U A145G C150A C169G U176A the reverse-splicing fitness was 0.00878.
In the case of C82G A111U A120U A145G C150A C169G U176C, the reverse-splicing fitness is reported as 0.00577.
Variant C82G A111U A120U A145G C150A C169G U176G has a reverse-splicing fitness of 0.00257.
C82G A111U A120U A145G C150A C169U showed a reverse-splicing fitness of 0.00464.
With C82G A111U A120U A145G C150A C169U U176A the reverse-splicing fitness was 0.00402.
With C82G A111U A120U A145G C150A C169U U176C the reverse-splicing fitness was 0.00514.
C82G A111U A120U A145G C150A C169U U176G gave a reverse-splicing fitness of 0.00285.
With C82G A111U A120U A145G C150A U176A the reverse-splicing fitness was 0.00769.
For C82G A111U A120U A145G C150A U176C, the reverse-splicing fitness was 0.00757.
In the case of C82G A111U A120U A145G C150A U176G, the reverse-splicing fitness is reported as 0.00383.
In the case of C82G A111U A120U A145G C150G, the reverse-splicing fitness is reported as 0.00902.
C82G A111U A120U A145G C150G C169A gave a reverse-splicing fitness of 0.00873.
C82G A111U A120U A145G C150G C169A U176A gave a reverse-splicing fitness of 0.0114.
C82G A111U A120U A145G C150G C169A U176C gave a reverse-splicing fitness of 0.0086.
